How the values were obtained:
MukE (Escherichia coli) = MukE (Escherichia coli) (UniProt P22524); conditions: cited from earlier work
[1] = target: MukE-LLFR (MukE-L38S/L41A/F185S/R186E) (E. coli) (UniProt P22524); test: AUC

Sequence of MukE (P22524 whole entry): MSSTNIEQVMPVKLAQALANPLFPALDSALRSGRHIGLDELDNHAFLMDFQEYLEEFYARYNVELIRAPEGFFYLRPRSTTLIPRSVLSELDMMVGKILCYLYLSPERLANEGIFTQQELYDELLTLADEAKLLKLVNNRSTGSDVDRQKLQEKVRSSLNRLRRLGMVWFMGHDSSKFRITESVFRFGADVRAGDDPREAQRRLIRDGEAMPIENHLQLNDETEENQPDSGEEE

| Kd [1] [µM] | Substance | Kd (MukE (Escherichia coli)) [µM] |
| --- | --- | --- |
| – | MukE (from UniProt P22524) | 18 |
| 450 | MukE-LLFR (MukE-L38S/L41A/F185S/R186E) (from UniProt P22524 10-234) (natural protein) | – |

— article PMC3482342
